No end group written: not given here. Alexa488 = Alexa488 dye (single fluorescent dye molecule)
Molecular target: T1, CGRP receptor on rat CNS1 glioma cells (rat, UniProt Q63118 24-464; Q9JJ74 27-148)
T1 construct: whole, on cells; Endogenous receptor; also called CGRP receptors of CNS1 glioma cells
Assay: fluorescence microscopy, 30 nM FL-CGRP on CNS1 cells
Protocol: FIG. 13 is a panel of microscopy images illustrating that FL-CGRP binds to CNS1 glioma cells. CNS1 cells were incubated with 30 nM FL-CGRP for 30 minutes, and imaged using phase-contrast microscopy (right, upper and lower panels) and fluorescent microscopy for FL-CGRP (left, upper and lower panels).

T1 sequence (Q63118 24-464, chain 1 of 2): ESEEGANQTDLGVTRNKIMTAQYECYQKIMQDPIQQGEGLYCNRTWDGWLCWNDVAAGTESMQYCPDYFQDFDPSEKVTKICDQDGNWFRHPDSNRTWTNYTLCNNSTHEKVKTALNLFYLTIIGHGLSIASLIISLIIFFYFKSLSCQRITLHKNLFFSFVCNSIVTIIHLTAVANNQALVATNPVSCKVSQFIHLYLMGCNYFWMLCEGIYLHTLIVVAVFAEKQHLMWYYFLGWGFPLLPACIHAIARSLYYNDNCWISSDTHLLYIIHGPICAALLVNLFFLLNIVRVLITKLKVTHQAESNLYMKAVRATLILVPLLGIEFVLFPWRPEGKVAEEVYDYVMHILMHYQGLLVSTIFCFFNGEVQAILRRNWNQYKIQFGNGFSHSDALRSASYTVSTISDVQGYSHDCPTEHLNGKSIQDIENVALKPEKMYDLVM
T1 sequence (Q9JJ74 27-148, chain 2 of 2): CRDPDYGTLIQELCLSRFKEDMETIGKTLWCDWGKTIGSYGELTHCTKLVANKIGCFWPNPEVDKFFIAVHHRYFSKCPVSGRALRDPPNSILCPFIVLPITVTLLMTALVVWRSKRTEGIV

binding result: binds
B1: fluorescently-labeled CGRP (FL-CGRP): rat CGRP with a single Alexa488 dye on lysine 24 (peptide, UniProt P01256 83-119, looked up)
peptide: SCNTATCVTHRLAGLLSRSGGVVK(Alexa488)DNFVPTNVGSEAF
modifications: ends and bridges not checked
notes: mature; the peptide itself is the mature 37-mer; also called single-labeled FL-CGRP

Reference: patent US20110189205A1 (UNIVERSITY OF ROCHESTER, published 2011)
